Laboratory results taken from patent US20250270343A1 (Alector, published 2025).
Positions count from the first letter of the chain named.

T1: soluble human GPNMB-Fc polypeptide (human, UniProt Q14956 23-498, limits assumed)
T1 construct: also called huGPNMB-Fc; not shown: Fc domain
T1 sequence (looked up): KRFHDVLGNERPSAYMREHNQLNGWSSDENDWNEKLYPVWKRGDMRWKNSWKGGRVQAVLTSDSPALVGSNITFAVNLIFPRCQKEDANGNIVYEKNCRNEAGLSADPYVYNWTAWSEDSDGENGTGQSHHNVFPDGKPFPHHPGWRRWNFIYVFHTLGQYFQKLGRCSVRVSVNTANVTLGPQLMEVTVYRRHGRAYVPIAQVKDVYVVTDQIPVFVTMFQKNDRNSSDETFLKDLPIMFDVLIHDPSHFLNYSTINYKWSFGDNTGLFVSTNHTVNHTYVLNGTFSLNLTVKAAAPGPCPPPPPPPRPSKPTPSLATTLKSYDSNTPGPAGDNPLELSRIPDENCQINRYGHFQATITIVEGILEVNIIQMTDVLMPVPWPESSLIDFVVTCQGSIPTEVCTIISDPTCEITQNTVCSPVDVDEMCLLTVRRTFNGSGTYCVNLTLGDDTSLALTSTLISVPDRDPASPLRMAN

B1: soluble mouse GPNMB-Fc polypeptide (Fc of human IgG1 or mouse IgG2A, not specified for the assay) (Fc fusion, UniProt Q99P91 23-502, looked up)
chain: KRFRDVLGHEQYPDHMREHNQLRGWSSDENEWDEHLYPVWRRGDGRWKDSWEGGRVQAVLTSDSPALVGSNITFVVNLVFPRCQKEDANGNIVYEKNCRNDLGLTSDLHVYNWTAGADDGDWEDGTSRSQHLRFPDRRPFPRPHGWKKWSFVYVFHTLGQYFQKLGRCSARVSINTVNLTAGPQVMEVTVFRRYGRAYIPISKVKDVYVITDQIPVFVTMSQKNDRNLSDEIFLRDLPIVFDVLIHDPSHFLNDSAISYKWNFGDNTGLFVSNNHTLNHTYVLNGTFNLNLTVQTAVPGPCPPPSPSTPPPPSTPPSPPPSPLPTLSTPSPSLMPTGYKSMELSDISNENCRINRYGYFRATITIVEGILEVSIMQIADVPMPTPQPANSLMDFTVTCKGATPMEACTIISDPTCQIAQNRVCSPVAVDGLCLLSVRRAFNGSGTYCVNFTLGDDASLALTSTLISIPGKDPDSPLRAVN
notes: extracellular domain; also called moGPNMB-Fc; mGPNMB; not shown: Fc region of human IgG1 or mouse IgG2A; in the Fab2 assay detected with anti-human IgG1 secondary antibody
B2: recombinant Fab2 fragment of anti-GPNMB antibody GPN-65 (other)
VH: QLQLQQSGTEVVKPGASVKIPCKASGYAFSSYWMNWVKQRPGKGLEWIGQIYPGDGDTNDNGKFEGKATLTVDKSSNTAYIQLSSLTSEDSAVYFCARSPLHLRGSMDYWGQGTSVTVSS
VL: SIVMTQTPKFLLVSAGDRVTITCKASQSVSNDVAWFQQKPGQSPELLIYSASNRYTGVPDRFTGSGYGTDFTFTISTVQAEDLAVYFCQQNYYSPFTFGGGTRLEIK
notes: also called GPN-65 Fab2
B3: recombinant Fab2 fragment of anti-GPNMB antibody GPN-41 (other)
VH: B2 VH
VL: B2 VL with G64A, T77A
notes: also called GPN-41 Fab2
B4: recombinant Fab2 fragment of anti-GPNMB antibody GPN-35 (other)
VH: EVQLVESGGGSVRPGRSLKLSCAAAGFTFSDYYMTWVRQAPTKGLEWVASINHDGGGTYYRDSVKGRFTISRDNARSSLYLQMDSLRSEDTGTYYCTTRAGWHWGQGVMVTVSS
VL: DIQMTQSPASLSASLGETVSIECLASEDIYNYLTWYQQKPGKSPQVLIYSASGLQDGVPSRFSGSGSGRQYSLKINGLESEDAATYFCLQDSEYPLTFGSGTKLEIK
notes: also called GPN-35 Fab2
B5: recombinant Fab2 fragment of anti-GPNMB antibody GPN-37 (other)
VH: EVQLVESGGGLVQPGRSLKLSCAASGFTFSSKSGMAWVRQAPTKGLEWVASISNGGGDTYYRDSVKGRFTISRDNAKNTQYLQMDSLRPEDTATYYCARHRDYGYDAYFDYWGQGVMVTVSS
VL: DIQMTQSPASLSASLGETVTIECLASEDIYSSLAWYQQKPGKSPQLLIYDASSLQDGVPSRFSGSESGTQYSLEINSLQSEDAATYFCQQHHDYPYTFGAGTKLELK
notes: also called GPN-37 Fab2
B6: recombinant Fab2 fragment of anti-GPNMB antibody GPN-38 (other)
VH: QVQLQQPGAELVRPGTSVRLSCKASGYTFTSYWIHWVKQRPGRGLEWIGVIDPSDSYTNYNQQFNVKATLTVDTSSSAAYMQLSSLTSEDSAVYYCARGLITAVNWYFDVWGTGTTVTVSS
VL: DIQMTQSPASLSTSVGEIVTITCRASENIYSYLTWYQQKQGKSPQLLVYNAKTLAEGVPSRFSGSGSGTQFSLKINSLQPEDFGTYYCQHHYGTPLTFGSGTKLEIK
notes: also called GPN-38 Fab2

Tests used:
[1] = molecular target: T2, unidentified GPNMB ligand(s) on the surface of NHLF cells; assay: flow cytometry, titration of soluble moGPNMB-Fc on normal human lung fibroblasts; MFI-APC against concentration (ug/mL)
T2 construct: written like m62, for NHLF cells; also called Normal Human Lung Fibroblast Cells
Source text: The extracellular domain of GPNMB protein contains putative protein- or carbohydrate-binding domains capable of recognizing various ligands on the cell surface. […] Soluble mouse GPNMB-Fc polypeptide, consisting of the extracellular domain of mouse GPNMB and an Fc region of human IgG1 or mouse IgG2A (R&D System) (moGPNMB or mGPNMB) was used to confirm the binding activity of GPNMB towards different cell lines. Binding properties of soluble moGPNMB-Fc were examined by flow cytometry. Different cell lines (mouse SVEC4-10 cells, normal human lung fibroblasts (NHLF), mouse astrocytes, and human astrocytes were nonenzymatically harvested, plated at 100,000 cells/well, and incubated with increasing concentrations moGPNMB-Fc or control human IgG1 or control mouse IgG2A, in binding buffer (Hanks' balanced salt solution containing 1.3 mM CaCl₂, 0.8 mM MgSO₄, 3% fetal calf serum, and 10 mM HEPES) for 30 min on ice.
[…] Binding of soluble moGPNMB-Fc to cells was examined by FACSCanto (Becton Dickinson, San Jose, CA). In some experiments, the binding was performed in the presence of known GPNMB binding inhibitors (heparin, dextran sulfate, all purchased from Sigma).

[2] = molecular target: T1, soluble human GPNMB-Fc polypeptide; assay: FACS, Fab2 enhancing huGPNMB-Fc binding to SVEC4-10 cells
Procedure: (§1) Purified recombinant Fab2 fragments of select anti-GPNMB antibodies of the present disclosure were produced through transient transfection and purified. Briefly, 2 ug/mL soluble mouse or human GPNMB-Fc diluted in binding buffer was pre-complexed with increasing concentrations of anti-GPNMB Fab2 fragments in 96-well plates. Subsequently, 100,000 SVEC4-10 cells were added per well and incubated on ice for 30 minutes. Soluble moGPNMB-Fc or huGPNMB-Fc bound to cell surface was detected with fluorescent anti-human IgG1 secondary antibody and measured on FACSCanto. IC50 and EC50 values based on changes in MFI values were calculated for each antibody.

[3] = molecular target: B1; assay: FACS, Fab2 enhancing moGPNMB-Fc binding to SVEC4-10 cells
Procedure: as §1

[4] = molecular target: B1; assay: FACS ligand binding assay: 2 ug/mL moGPNMB-Fc pre-complexed with rising Fab2, then SVEC4-10 cells; blocked ligand: unidentified ligand(s) on SVEC4-10 cells; bound GPNMB-Fc detected with anti-human IgG1 secondary
Procedure: as §1

[5] = molecular target: T1, soluble human GPNMB-Fc polypeptide; assay: FACS, Fab2 blocking huGPNMB-Fc binding to SVEC4-10 cells
Procedure: as §1

[6] = molecular target: B1; assay: FACS, Fab2 blocking moGPNMB-Fc binding to SVEC4-10 cells
Procedure: as §1

| EC50 [2] [nM] | EC50 [3] [nM] | IC50 [5] [nM] | Binder | also measured |
| --- | --- | --- | --- | --- |
| – | – | – | B1 | EC50 (read off the curve) [1]: ~0.1 µg/mL |
| 0.83 | 0.38 | – | B2 | – |
| – | – | – | B3 | IC50 (read off the curve) [4]: ~4 µM |
| – | – | 5.08 | B4 | IC50 [6]: 4.05 nM |
| – | – | 9.49 | B5 | – |
| 2.15 | 5.83 | – | B6 | – |
